Reference: paper PMC5329690, “A Synthetic Strategy for Conjugation of Paromomycin to Cell-Penetrating Tat(48-60) for Delivery and Visualization into Leishmania Parasites” (International Journal of Peptides, 2017)

Test system: Leishmania donovani promastigotes
Experiment: Intracellular uptake by confocal fluorescence microscopy
Format: cell-based
Conditions: L. donovani promastigotes strain MHOM/SD/00/1S-2D, 2 × 10^7 cells/mL in HBSS-Glc; 9 μM conjugate, 4 h, 26°C; washed, DAPI 5 μg/mL, unfixed; confocal fluorescence λex 488 nm/λem 520 nm; representative of two other independent experiments
Method: Leishmania donovani promastigotes (strain MHOM/SD/00/1S-2D) were resuspended in Hanks' medium supplemented with 10 mM D-glucose (HBSS-Glc) at 2 × 10^7 cells/mL. Afterwards, 9 μM Bodi Fluor 488-labeled PMM-Tat conjugate 6 was added to the parasite suspension and incubated for 4 h in HBSS-Glc. After incubation, non-incorporated 6 was removed by washing the cells with HBSS-Glc. Finally, cells were labeled with DAPI (5 μg/mL, 20 min) before their observation, unfixed, in a Leica TCS–SP2 ABOS confocal laser scanning microscope.
Figure 3 Fluorescence of Leishmania donovani promastigotes incubated with Bodi Fluor 488-labeled PMM-Tat conjugate (9 μM, 4 h, 26°C) and stained with DAPI (5 μg/mL) immediately before observation, unfixed. Settings: conjugate (green, λex = 488 nm/λem = 520 nm); DAPI (blue, λex = 350 nm/λem = 460 nm). Bar = 20 μm. Experiment is representative of two other ones performed independently.
4. Parasite culture and confocal microscopy
Leishmania donovani promastigotes (strain MHOM/SD/00/1S-2D) were resuspended in Hanks’ medium supplemented with 10 mM D-glucose (HBSS-Glc) at 2 × 10^7 cells/mL.
Afterwards, 9 µM BodiFluor™ 488-labeled PMM-Tat conjugate was added to the parasite suspension and incubated for 4 h in HBSS-Glc. After incubation, non-incorporated conjugate was removed by washing the cells with HBSS-Glc. […]

## Bodi Fluor-O2Oc-Tat(48-60)-O2Oc-Asp(paromomycin)-amide [compound 6]
  intracellular uptake (internalization and cellular pattern): can enter the parasite, with a diffuse pattern in all the cytoplasm
